According to US20170349905A1:

What was measured:
[1] = biological target: second domain of Cas9 protein (half domain comprising the C-terminus, beginning with the QG amino acids of the SGQG linker; NLS and HA tag at its C-terminus) (UniProt Q99ZW2); assay: cell-based or functional assay
[2] = biological target: second domain of Cas9 protein delivered by adeno-associated virus vector (splicing acceptor linked t (UniProt Q99ZW2)); assay: cell-based or functional assay
second domain of Cas9 protein delivered by adeno-associated virus vector (splicing acceptor linked t, sequence (Q99ZW2 716-1368 limits assumed): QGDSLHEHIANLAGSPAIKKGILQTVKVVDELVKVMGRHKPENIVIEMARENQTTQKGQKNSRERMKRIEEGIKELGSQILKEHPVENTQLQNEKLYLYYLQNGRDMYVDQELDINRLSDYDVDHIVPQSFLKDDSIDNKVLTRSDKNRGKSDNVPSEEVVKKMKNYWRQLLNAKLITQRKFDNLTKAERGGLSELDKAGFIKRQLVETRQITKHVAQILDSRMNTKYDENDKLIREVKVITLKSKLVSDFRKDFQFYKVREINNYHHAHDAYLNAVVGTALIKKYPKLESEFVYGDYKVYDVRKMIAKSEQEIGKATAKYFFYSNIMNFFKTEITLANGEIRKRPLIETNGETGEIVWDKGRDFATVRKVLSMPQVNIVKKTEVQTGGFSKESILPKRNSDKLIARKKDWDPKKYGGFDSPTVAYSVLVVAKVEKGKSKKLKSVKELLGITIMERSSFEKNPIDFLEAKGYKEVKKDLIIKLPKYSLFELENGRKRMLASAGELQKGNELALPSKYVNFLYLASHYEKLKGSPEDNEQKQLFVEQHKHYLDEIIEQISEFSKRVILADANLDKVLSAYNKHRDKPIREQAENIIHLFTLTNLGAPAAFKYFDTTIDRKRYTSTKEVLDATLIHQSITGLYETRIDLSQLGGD

second domain of Cas9 protein (half domain comprising the C-terminus, beginning with the QG amino acids of the SGQG linker; NLS and HA tag at its C-terminus), sequence (Q99ZW2 716-1368): as the sequence (Q99ZW2 716-1368 limits assumed) above

In the case of “first domain of Cas9 protein (half domain comprising the N-terminus, ending in the SG amino acids of the SGQG linker; HA tag and NLS at its N-terminus) (from UniProt Q99ZW2 1-715) (enzyme)”, the Indel frequency in the CCR5 gene (next-generation sequencing) [1] is reported as 20.3%, the Indel frequency in the DMD gene (next-generation sequencing) [1] is reported as 23.8% and the Indel frequency in the HPRT gene (next-generation sequencing) [1] is reported as 27.1%.

“first domain of Cas9 protein delivered by adeno-associated virus vector (splicing donor linked to the C-terminal region) (from UniProt Q99ZW2 1-715) (enzyme)” gave a target sequence cleavage rate (DMD exon 51) in Hela cells co-infected with AAV, next-generation sequencing [2] of 5%.
